For two substances, Kd results are on record in paper PMC10202959.

What all share (experiment): ELISA; plates coated with 100 nM ECM protein in PBS (1 h, 37 °C), blocked with 1% BSA in PBS-T; PDGF-BB or IL-1Ra variants at increasing concentrations in PBS-T with 0.1% BSA, 1 h at room temperature; detected with biotinylated antibodies; one site specific binding model; n = 3
In assay [1] the target is human vitronectin (human) (UniProt P04004).
Assay [2] deals with human plasma fibronectin (human).
For another assay, the target named is human tenascin C (human) (UniProt P24821).
Chain of human tenascin C (human) (P24821 23-2201): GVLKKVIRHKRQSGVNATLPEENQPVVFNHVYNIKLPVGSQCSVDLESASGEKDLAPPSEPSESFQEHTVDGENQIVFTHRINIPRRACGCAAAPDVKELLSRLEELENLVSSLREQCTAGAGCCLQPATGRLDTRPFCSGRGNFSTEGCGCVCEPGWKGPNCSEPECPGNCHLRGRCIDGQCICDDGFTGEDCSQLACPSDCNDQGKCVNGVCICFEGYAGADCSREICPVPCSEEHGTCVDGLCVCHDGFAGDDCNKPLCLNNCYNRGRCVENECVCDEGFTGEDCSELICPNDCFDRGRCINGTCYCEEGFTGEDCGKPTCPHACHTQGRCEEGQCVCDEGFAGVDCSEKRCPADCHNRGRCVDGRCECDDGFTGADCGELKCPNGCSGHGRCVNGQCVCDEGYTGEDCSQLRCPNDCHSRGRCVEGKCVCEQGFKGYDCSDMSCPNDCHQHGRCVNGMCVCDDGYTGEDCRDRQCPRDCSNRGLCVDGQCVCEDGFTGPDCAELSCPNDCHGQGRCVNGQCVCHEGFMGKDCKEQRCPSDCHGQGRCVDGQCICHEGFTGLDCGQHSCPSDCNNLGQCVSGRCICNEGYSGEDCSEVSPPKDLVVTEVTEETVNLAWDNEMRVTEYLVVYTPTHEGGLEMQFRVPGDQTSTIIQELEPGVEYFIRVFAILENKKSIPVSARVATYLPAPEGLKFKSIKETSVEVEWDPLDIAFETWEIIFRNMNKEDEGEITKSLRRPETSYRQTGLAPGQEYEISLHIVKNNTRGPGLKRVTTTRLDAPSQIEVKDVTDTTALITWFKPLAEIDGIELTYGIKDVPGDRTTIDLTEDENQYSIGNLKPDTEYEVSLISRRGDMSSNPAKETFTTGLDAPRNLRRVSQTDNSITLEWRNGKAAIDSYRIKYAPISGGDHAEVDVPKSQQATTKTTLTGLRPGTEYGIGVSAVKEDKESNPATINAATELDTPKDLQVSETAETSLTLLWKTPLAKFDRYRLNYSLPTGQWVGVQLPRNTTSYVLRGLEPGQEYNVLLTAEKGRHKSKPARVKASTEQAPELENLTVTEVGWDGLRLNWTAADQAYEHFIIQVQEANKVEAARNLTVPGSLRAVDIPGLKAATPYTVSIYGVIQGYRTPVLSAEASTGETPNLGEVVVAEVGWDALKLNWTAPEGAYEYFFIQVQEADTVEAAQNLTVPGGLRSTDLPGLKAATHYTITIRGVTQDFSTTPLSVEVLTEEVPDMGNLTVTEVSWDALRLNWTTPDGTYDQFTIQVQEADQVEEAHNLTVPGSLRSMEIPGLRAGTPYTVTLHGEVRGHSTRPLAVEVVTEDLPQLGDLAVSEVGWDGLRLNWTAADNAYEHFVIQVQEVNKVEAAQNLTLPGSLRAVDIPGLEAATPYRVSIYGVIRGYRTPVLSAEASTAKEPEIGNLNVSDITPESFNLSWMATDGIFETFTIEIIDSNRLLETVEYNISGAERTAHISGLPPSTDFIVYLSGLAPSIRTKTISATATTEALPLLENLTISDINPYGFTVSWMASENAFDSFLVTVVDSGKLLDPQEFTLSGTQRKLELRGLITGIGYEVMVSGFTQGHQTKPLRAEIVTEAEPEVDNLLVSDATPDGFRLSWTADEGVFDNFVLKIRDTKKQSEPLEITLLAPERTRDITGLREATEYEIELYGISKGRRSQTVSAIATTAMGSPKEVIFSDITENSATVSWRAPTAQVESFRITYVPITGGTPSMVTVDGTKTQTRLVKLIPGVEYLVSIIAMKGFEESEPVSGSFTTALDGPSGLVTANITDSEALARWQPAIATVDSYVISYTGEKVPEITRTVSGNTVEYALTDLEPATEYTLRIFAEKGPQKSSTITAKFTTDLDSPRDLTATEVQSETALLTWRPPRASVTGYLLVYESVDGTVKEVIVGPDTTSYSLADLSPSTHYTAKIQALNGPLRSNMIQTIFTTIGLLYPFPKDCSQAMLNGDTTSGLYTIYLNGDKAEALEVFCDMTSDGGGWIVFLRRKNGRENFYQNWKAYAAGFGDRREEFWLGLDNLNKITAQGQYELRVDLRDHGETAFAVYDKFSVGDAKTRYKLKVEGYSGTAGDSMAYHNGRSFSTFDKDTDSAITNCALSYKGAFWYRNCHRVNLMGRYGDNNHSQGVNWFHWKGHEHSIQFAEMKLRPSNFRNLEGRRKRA

Chain of human vitronectin (human) (P04004 20-478): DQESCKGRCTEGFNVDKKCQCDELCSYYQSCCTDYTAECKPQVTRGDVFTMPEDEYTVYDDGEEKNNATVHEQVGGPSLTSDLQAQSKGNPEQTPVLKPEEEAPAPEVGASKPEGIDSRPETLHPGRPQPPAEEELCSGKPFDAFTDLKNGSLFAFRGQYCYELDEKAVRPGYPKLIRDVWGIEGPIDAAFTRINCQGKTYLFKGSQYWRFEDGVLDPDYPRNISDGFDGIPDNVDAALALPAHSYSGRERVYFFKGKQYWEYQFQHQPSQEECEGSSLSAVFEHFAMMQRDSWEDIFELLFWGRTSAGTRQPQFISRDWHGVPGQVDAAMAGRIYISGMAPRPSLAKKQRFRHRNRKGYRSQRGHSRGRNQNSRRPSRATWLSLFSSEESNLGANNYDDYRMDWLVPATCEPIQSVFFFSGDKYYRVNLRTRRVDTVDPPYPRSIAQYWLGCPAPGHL

By Kd is commonly meant the constant that tells how readily two partners part at equilibrium. Low readings indicate higher affinity, high ones lower affinity. With AREG26-38/IL-1Ra, the figures for the Kd (in assay [1]; in assay [2]; with human tenascin C (human)) were 1.9 nM, 16.5 nM and 18.6 nM, respectively.

In the case of AREG26-38/PDGF-BB, the Kd in assay [1] turned out to be 1.3 nM; in assay [2], 5.9 nM; in the assay with human tenascin C (human) it was 19.3 nM.
